{"source": "paper doi:10.1101/2025.11.11.687775", "biological_target": "microtubules of primary rat hippocampal neurons (rat (endogenous in primary hippocampal neurons)) (UniProt P68370)"}
{"substance": "GFP-tagged Tau lacking the microtubule-binding domain (delMTBD-Tau; PRR2-WT, MTBD deleted) (from UniProt P10636-6 1-383) (natural protein)", "values": [{"measurement": "FRAP recovery plateau in rat neurons", "value": 0.873}]}
